From patent US20180009871A1 (INTARCIA THERAPEUTICS, published 2018)
Where no end group is shown, it is not given here. [ ]: non-standard residue; d: D form. Formula III = not defined here; Formula II = not defined here; Aib = CC(C)(N)C(=O)O

biological target: human glucagon receptor (GCGR) (human, UniProt P47871 26-477); test: cell-based or functional assay

Row | Binder | GluR pEC 50 [pEC50]
1 | YSQGTFTSDYSKYLDAARAQEFVKWLEDEPKSK(Formula II)SPPPS-NH2 (reading uncertain) [Compound B33] | 10.6
2 | YSHGTFTSDYSKYLD[Aib]KSAQEFV[Aib]WLEDEPSSK(Formula III)APPPS-OH (reading uncertain) [Compound B13] | 9.2
3 | YSQGTFTSDYSKYLDK(Formula III)ARAQEFVKWLEDEPKSKSPPPS-NH2 (reading uncertain) [Compound B39] | 10.9
4 | YSHGTFTSDYSKYLD[Aib]KRAQEFVIWLEDEPSSK(Formula II)APPPS-OH (reading uncertain) [Compound B25] | 10.5
5 | YSQGTFTSDYSKYLDAARAQEFVKWLEDEPKSK(Formula III)SPPPS-NH2 (reading uncertain) [Compound B37] | 10.1
6 | WSQGTFTSDK(Formula III)SKYLD[Aib]KRAQEFV[Aib]WLEDEPSSGAPPPS-OH (reading uncertain) [Compound B24] | 8.2
7 | YSQGTFTSDYSKYLDAARAQEFVK(Formula III)WLEDEPKSKSPPPS-NH2 (reading uncertain) [Compound B38] | 9.6
8 | YSHGTFTSDYSKYLDSARAQEFVKWLEDEPSSK(Formula II)APPPS-NH2 (reading uncertain) [Compound B41] | 10.6
9 | YSHGTFTSDK(Formula III)SKYLD[Aib]KRAQEFVIWLEDEPSSGAPPPS-OH (reading uncertain) [Compound B32] | 9.4
10 | YSHGTFTSDYSKYLDK(Formula III)KSAQEFV[Aib]WLEDEPSSGAPPPS-OH (reading uncertain) [Compound B15] | 9.9
11 | YSHGTFTSDYSKYLDK(Formula III)KRAQEFVIWLEDEPSSGAPPPS (reading uncertain) [Compound B31] | 10.6
12 | YSHGTFTSDK(Formula II)SKYLD[Aib]KSAQEFV[Aib]WLEDEPSSGAPPPS-OH (reading uncertain) [Compound B12] | 11.5
13 | YSHGTFTSDYSKYLD[Aib]KSAQEFVK(Formula III)WLEDEPSSGAPPPS-OH (reading uncertain) [Compound B14] | 9.3
14 | YSHGTFTSDK(Formula II)SKYLD[Aib]KRAQEFVIWLEDEPSSGAPPPS-OH (reading uncertain) [Compound B27] | 11.5
15 | YSHGTFTSDYSKYLD[Aib]KRAQK(Formula III)FVIWLEDEPSSGAPPPS-OH (reading uncertain) [Compound B30] | 9.7
16 | YSHGTFTSDYSKYLDSARAQEFVK(Formula II)WLEDEPSSGAPPPS-NH2 (reading uncertain) [Compound B42] | 9.7
17 | YSHGTFTSDYSKYLD[Aib]KRAQEFVIWLEDEPSSK(Formula III)APPPS-OH (reading uncertain) [Compound B29] | 9.8
18 | YSQGTFTSDK(Formula II)SKYLDAARAQEFVKWLEDEPKSKSPPPS-NH2 (reading uncertain) [Compound B36] | 11.5

Row | Binder | GluR pEC 50 [pEC50]
19 | YSQGTFTSDK(Formula III)SKYLDAARAQEFVKWLEDEPKSKSPPPS-NH2 (reading uncertain) [Compound B40] | 11.9
20 | WSQGTFTSDYSKYLD[Aib]KRAQEFVK(Formula II)WLEDEPSSGAPPPS-OH (reading uncertain) [Compound B18] | 10.2
21 | WSQGTFTSDYSKYLD[Aib]KRAQEFV[Aib]WLEDEPSSK(Formula II)APPPS-OH (reading uncertain) [Compound B17] | 10.5
22 | YSHGTFTSDK(Formula III)SKYLDSARAQEFVKWLEDEPSSGAPPPS-NH2 (reading uncertain) [Compound B48] | 9.2
23 | WSQGTFTSDYSKYLDK(Formula II)KRAQEFV[Aib]WLEDEPSSGAPPPS-OH (reading uncertain) [Compound B19] | 10.6
24 | YSHGTFTSDYSKYLDSARAQEFVK(Formula III)WLEDEPSSGAPPPS-NH2 (reading uncertain) [Compound B46] | 9.5
25 | YSHGTFTSDYSKYLDK(Formula III)ARAQEFVKWLEDEPSSGAPPPS-NH2 (reading uncertain) [Compound B47] | 10.8
26 | YSQGTFTSDYSKYLDK(Formula II)ARAQEFVKWLEDEPKSKSPPPS-NH2 (reading uncertain) [Compound B35] | 11.1
27 | YSHGTFTSDYSKYLDK(Formula II)KSAQEFV[Aib]WLEDEPSSGAPPPS-OH (reading uncertain) [Compound B11] | 10.3
28 | WSQGTFTSDK(Formula II)SKYLD[Aib]KRAQEFV[Aib]WLEDEPSSGAPPPS-OH (reading uncertain) [Compound B20] | 11.1
29 | YSHGTFTSDYSKYLDK(Formula II)ARAQEFVKWLEDEPSSGAPPPS-NH2 (reading uncertain) [Compound B43] | 11.1
30 | YSHGTFTSDYSKYLDK(Formula II)KRAQEFVIWLEDEPSSGAPPPS (reading uncertain) [Compound B26] | 11
31 | YSQGTFTSDYSKYLDAARAQEFVK(Formula II)WLEDEPKSKSPPPS-NH2 (reading uncertain) [Compound B34] | 9.8
32 | WSQGTFTSDYSKYLDK(Formula III)KRAQEFV[Aib]WLEDEPSSGAPPPS-OH (reading uncertain) [Compound B23] | 9.5
33 | YSHGTFTSDK(Formula II)SKYLDSARAQEFVKWLEDEPSSGAPPPS-NH2 (reading uncertain) [Compound B44] | 11.9
34 | YSHGTFTSDYSKYLDSARAQEFVKWLEDEPSSK(Formula III)APPPS-NH2 (reading uncertain) [Compound B45] | 9.8
35 | YSHGTFTSDK(Formula III)SKYLD[Aib]KSAQEFV[Aib]WLEDEPSSGAPPPS-OH (reading uncertain) [Compound B16] | 8.5

biological target: T1, human GLP-1 receptor (GLP-1R) (human, UniProt P43220 24-463); test: cell-based or functional assay
T1 sequence (P43220 24-463): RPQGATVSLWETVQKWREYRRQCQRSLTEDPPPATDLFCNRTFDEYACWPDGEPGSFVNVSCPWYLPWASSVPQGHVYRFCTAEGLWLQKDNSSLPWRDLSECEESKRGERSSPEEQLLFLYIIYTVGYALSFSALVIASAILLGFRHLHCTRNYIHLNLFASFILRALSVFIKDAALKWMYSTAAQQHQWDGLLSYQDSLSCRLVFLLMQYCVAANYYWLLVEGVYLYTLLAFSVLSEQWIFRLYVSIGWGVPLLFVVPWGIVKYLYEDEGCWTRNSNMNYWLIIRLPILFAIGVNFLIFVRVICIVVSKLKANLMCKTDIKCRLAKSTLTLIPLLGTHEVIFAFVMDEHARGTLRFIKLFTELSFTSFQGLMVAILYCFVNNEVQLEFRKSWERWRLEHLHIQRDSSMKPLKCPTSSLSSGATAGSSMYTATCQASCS

Row | Binder | GLP-1R pEC 50 [pEC50]
36 | YSQGTFTSDYSKYLDAARAQEFVKWLEDEPKSK(Formula II)SPPPS-NH2 (reading uncertain) [Compound B33] | < 6
37 | YSHGTFTSDYSKYLD[Aib]KSAQEFV[Aib]WLEDEPSSK(Formula III)APPPS-OH (reading uncertain) [Compound B13] | < 6
38 | YSQGTFTSDYSKYLDK(Formula III)ARAQEFVKWLEDEPKSKSPPPS-NH2 (reading uncertain) [Compound B39] | 6
39 | YSHGTFTSDYSKYLD[Aib]KRAQEFVIWLEDEPSSK(Formula II)APPPS-OH (reading uncertain) [Compound B25] | < 6
40 | YSQGTFTSDYSKYLDAARAQEFVKWLEDEPKSK(Formula III)SPPPS-NH2 (reading uncertain) [Compound B37] | 6.2
41 | WSQGTFTSDK(Formula III)SKYLD[Aib]KRAQEFV[Aib]WLEDEPSSGAPPPS-OH (reading uncertain) [Compound B24] | 6.8
42 | YSQGTFTSDYSKYLDAARAQEFVK(Formula III)WLEDEPKSKSPPPS-NH2 (reading uncertain) [Compound B38] | 6
43 | YSHGTFTSDYSKYLDSARAQEFVKWLEDEPSSK(Formula II)APPPS-NH2 (reading uncertain) [Compound B41] | < 6
44 | YSHGTFTSDK(Formula III)SKYLD[Aib]KRAQEFVIWLEDEPSSGAPPPS-OH (reading uncertain) [Compound B32] | 7.8
45 | YSHGTFTSDYSKYLDK(Formula III)KSAQEFV[Aib]WLEDEPSSGAPPPS-OH (reading uncertain) [Compound B15] | < 6
46 | YSHGTFTSDYSKYLDK(Formula III)KRAQEFVIWLEDEPSSGAPPPS (reading uncertain) [Compound B31] | 7.4
47 | YSHGTFTSDK(Formula II)SKYLD[Aib]KSAQEFV[Aib]WLEDEPSSGAPPPS-OH (reading uncertain) [Compound B12] | 7.2
48 | YSHGTFTSDYSKYLD[Aib]KSAQEFVK(Formula III)WLEDEPSSGAPPPS-OH (reading uncertain) [Compound B14] | < 6
49 | YSHGTFTSDK(Formula II)SKYLD[Aib]KRAQEFVIWLEDEPSSGAPPPS-OH (reading uncertain) [Compound B27] | 6.6
50 | YSHGTFTSDYSKYLD[Aib]KRAQK(Formula III)FVIWLEDEPSSGAPPPS-OH (reading uncertain) [Compound B30] | 7
51 | YSHGTFTSDYSKYLDSARAQEFVK(Formula II)WLEDEPSSGAPPPS-NH2 (reading uncertain) [Compound B42] | < 6
52 | YSHGTFTSDYSKYLD[Aib]KRAQEFVIWLEDEPSSK(Formula III)APPPS-OH (reading uncertain) [Compound B29] | 7
53 | YSQGTFTSDK(Formula II)SKYLDAARAQEFVKWLEDEPKSKSPPPS-NH2 (reading uncertain) [Compound B36] | 8.1

Row | Binder | GLP-1R pEC 50 [pEC50]
54 | YSQGTFTSDK(Formula III)SKYLDAARAQEFVKWLEDEPKSKSPPPS-NH2 (reading uncertain) [Compound B40] | 7.2
55 | WSQGTFTSDYSKYLD[Aib]KRAQEFVK(Formula II)WLEDEPSSGAPPPS-OH (reading uncertain) [Compound B18] | < 6
56 | WSQGTFTSDYSKYLD[Aib]KRAQEFV[Aib]WLEDEPSSK(Formula II)APPPS-OH (reading uncertain) [Compound B17] | < 6
57 | YSHGTFTSDK(Formula III)SKYLDSARAQEFVKWLEDEPSSGAPPPS-NH2 (reading uncertain) [Compound B48] | < 6
58 | WSQGTFTSDYSKYLDK(Formula II)KRAQEFV[Aib]WLEDEPSSGAPPPS-OH (reading uncertain) [Compound B19] | 6.3
59 | YSHGTFTSDYSKYLDSARAQEFVK(Formula III)WLEDEPSSGAPPPS-NH2 (reading uncertain) [Compound B46] | < 6
60 | YSHGTFTSDYSKYLDK(Formula III)ARAQEFVKWLEDEPSSGAPPPS-NH2 (reading uncertain) [Compound B47] | < 6
61 | YSQGTFTSDYSKYLDK(Formula II)ARAQEFVKWLEDEPKSKSPPPS-NH2 (reading uncertain) [Compound B35] | 6.6
62 | YSHGTFTSDYSKYLDK(Formula II)KSAQEFV[Aib]WLEDEPSSGAPPPS-OH (reading uncertain) [Compound B11] | 6.3
63 | WSQGTFTSDK(Formula II)SKYLD[Aib]KRAQEFV[Aib]WLEDEPSSGAPPPS-OH (reading uncertain) [Compound B20] | 6.5
64 | YSHGTFTSDYSKYLDK(Formula II)ARAQEFVKWLEDEPSSGAPPPS-NH2 (reading uncertain) [Compound B43] | < 6
65 | YSHGTFTSDYSKYLDK(Formula II)KRAQEFVIWLEDEPSSGAPPPS (reading uncertain) [Compound B26] | < 6
66 | YSQGTFTSDYSKYLDAARAQEFVK(Formula II)WLEDEPKSKSPPPS-NH2 (reading uncertain) [Compound B34] | < 6
67 | WSQGTFTSDYSKYLDK(Formula III)KRAQEFV[Aib]WLEDEPSSGAPPPS-OH (reading uncertain) [Compound B23] | 6.5
68 | YSHGTFTSDK(Formula II)SKYLDSARAQEFVKWLEDEPSSGAPPPS-NH2 (reading uncertain) [Compound B44] | 7.2
69 | YSHGTFTSDYSKYLDSARAQEFVKWLEDEPSSK(Formula III)APPPS-NH2 (reading uncertain) [Compound B45] | < 6
70 | YSHGTFTSDK(Formula III)SKYLD[Aib]KSAQEFV[Aib]WLEDEPSSGAPPPS-OH (reading uncertain) [Compound B16] | 8.3

biological target: T1, human GLP-1 receptor (GLP-1R); test: cell-based or functional assay; remark: another data set of the same source

Row | Binder | hGLP1 pEC50 (cAMP) [pEC50]
71 | YSHGTFTSDYTRLLESKRAQEFVKWLEDEPSSGAPPPS [Compound A98] | < 9
72 | YSHGTFTSDYSKYLDAARAQEFVKWLEDEPSSGAPPPS [Compound A97] | < 9
